In paper PMC2854379:

Target: CDK5RAP2 (human (endogenous in HeLa)) (UniProt Q96SN8)
Assay: co-IP

UniProt Q96SN8, sequence (Q96SN8 whole entry): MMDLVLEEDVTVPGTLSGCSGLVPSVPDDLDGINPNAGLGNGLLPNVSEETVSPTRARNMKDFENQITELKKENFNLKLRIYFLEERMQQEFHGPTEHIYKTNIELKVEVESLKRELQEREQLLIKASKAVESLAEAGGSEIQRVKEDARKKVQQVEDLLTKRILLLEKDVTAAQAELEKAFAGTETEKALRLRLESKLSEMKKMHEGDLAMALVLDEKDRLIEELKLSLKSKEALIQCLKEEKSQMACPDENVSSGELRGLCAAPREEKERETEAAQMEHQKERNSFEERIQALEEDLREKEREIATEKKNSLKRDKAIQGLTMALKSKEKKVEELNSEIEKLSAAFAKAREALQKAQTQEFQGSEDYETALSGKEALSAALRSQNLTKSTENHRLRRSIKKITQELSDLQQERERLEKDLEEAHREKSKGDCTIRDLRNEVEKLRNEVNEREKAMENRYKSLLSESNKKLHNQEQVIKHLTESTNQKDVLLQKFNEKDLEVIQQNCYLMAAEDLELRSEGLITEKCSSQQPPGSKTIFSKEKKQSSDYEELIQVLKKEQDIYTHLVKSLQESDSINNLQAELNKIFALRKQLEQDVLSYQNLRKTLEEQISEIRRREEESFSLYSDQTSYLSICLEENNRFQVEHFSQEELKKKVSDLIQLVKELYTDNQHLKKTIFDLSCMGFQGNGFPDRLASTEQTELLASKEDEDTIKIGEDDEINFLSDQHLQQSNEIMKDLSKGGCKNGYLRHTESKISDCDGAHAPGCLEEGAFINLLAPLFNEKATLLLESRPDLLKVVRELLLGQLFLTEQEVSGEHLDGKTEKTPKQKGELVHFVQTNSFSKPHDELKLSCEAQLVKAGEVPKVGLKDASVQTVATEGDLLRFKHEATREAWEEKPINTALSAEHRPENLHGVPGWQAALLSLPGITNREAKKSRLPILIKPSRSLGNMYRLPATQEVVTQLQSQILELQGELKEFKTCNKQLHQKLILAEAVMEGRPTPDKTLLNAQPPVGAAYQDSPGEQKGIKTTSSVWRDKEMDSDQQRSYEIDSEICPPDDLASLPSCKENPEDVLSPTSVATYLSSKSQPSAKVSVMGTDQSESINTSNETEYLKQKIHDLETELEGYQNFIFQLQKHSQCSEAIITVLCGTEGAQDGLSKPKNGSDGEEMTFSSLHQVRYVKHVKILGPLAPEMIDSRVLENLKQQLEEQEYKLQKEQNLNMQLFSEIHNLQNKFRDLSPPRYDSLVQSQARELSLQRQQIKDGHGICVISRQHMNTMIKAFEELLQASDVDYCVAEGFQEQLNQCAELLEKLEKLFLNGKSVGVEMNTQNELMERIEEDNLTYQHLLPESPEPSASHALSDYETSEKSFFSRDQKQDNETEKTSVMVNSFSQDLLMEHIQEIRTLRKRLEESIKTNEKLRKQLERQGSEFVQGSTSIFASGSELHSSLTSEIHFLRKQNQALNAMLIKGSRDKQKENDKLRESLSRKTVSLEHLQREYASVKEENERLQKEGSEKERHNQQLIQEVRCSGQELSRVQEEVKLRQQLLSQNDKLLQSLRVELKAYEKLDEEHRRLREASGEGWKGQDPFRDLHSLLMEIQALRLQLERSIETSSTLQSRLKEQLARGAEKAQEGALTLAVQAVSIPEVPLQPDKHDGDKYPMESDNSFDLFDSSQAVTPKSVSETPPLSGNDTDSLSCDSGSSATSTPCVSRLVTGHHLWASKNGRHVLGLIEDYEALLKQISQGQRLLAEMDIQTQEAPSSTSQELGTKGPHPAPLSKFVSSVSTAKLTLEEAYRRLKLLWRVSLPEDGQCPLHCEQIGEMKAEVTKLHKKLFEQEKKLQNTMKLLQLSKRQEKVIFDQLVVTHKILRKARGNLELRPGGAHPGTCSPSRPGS

percent of total AKAP450 co-immunoprecipitated by CDK5RAP2 antibody: 40%
Substance: AKAP450, Q99996 1-3907
